Where two headings read alike, the source gives them in different places.
Assays:
[1] = target: T1, HuCD100-Fc (in-house prepared) (human, UniProt Q92854 22-734, biotinylated in the Plexin binding and blocking assays (sites not given)); assay: FACS blocking; blocking of binding to HuPlexin-B1-HEK293
[2] = target: T2, full-length human CD100 protein HuCD100 on cells (human, UniProt Q92854 22-862); assay: FACS; Jurkat cells
[3] = target: T3, full-length mouse CD100 protein MusCD100 on cells (mouse, UniProt O09126 24-861); assay: FACS
T3 chain: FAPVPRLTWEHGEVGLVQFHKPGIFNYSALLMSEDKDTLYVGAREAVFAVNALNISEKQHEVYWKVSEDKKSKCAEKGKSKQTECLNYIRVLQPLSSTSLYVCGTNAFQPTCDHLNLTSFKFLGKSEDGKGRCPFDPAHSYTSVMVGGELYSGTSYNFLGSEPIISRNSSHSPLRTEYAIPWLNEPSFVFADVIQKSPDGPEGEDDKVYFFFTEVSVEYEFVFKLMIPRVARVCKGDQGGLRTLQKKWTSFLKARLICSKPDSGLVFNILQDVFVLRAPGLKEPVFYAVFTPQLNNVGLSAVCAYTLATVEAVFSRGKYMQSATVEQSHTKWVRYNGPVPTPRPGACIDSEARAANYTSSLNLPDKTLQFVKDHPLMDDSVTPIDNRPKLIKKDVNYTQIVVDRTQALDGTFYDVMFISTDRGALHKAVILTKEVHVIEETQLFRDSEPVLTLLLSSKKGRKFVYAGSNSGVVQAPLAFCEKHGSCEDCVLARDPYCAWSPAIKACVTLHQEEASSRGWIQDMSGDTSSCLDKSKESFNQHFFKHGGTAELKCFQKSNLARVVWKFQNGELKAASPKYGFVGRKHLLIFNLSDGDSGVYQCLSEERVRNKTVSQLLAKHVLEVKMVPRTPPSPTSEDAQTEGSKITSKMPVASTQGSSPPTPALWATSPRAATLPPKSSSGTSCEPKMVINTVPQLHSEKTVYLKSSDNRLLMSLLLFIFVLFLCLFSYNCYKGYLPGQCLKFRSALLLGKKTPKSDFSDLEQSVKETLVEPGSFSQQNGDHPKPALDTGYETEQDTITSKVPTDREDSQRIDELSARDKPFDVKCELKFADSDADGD

[4] = target: T2, full-length human CD100 protein HuCD100 …; assay: FACS
CynoCD100-HEK293 [5] = target: CynoCD100-HEK293 (cynomolgus monkey); assay: FACS
[6] = target: T1, HuCD100-Fc (in-house prepared); assay: FACS blocking; FIG. 8B, blocking of binding to HuPlexin-B2-HEK293
MusCD100-Fc [7] = target: T4, MusCD100-Fc (mouse, UniProt O09126 24-733, biotinylated in the Plexin binding and blocking assays (sites not given)); assay: FACS blocking; MusPlexin-B1-HEK293, FIG. 12E
T4 chain: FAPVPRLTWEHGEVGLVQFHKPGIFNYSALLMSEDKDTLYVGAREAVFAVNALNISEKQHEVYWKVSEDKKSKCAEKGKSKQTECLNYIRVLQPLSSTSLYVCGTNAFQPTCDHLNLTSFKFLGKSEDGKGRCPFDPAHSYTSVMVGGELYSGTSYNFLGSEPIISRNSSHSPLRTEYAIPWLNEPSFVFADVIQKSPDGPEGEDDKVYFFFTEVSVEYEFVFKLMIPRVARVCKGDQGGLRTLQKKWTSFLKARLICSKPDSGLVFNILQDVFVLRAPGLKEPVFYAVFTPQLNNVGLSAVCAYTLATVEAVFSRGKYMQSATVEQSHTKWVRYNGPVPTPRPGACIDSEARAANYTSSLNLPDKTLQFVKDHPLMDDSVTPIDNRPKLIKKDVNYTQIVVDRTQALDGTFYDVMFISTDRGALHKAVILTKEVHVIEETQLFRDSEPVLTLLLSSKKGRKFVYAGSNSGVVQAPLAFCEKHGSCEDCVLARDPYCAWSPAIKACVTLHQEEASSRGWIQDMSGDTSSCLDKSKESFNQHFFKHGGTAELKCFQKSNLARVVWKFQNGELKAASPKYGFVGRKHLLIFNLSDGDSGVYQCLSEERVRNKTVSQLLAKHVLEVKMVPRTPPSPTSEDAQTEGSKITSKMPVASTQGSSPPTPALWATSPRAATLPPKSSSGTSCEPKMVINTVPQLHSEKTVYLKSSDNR

CynoCD100-His = CynoCD100-His (cynomolgus monkey); assay: ELISA; FIG. 5F
MusCD100-Fc [8] = target: T4, MusCD100-Fc; assay: FACS blocking; MusPlexin-B1-HEK293, FIG. 12F
[9] = target: Human Semaphorin 4D/SEMA4D/CD100 Protein, Fc Tag (Acro, CD0-H5257) (human, UniProt Q92854 22-734); assay: ELISA; last HuCD100-Fc row
[10] = target: T1, HuCD100-Fc (in-house prepared); assay: FACS blocking; HuPlexin-B2-HEK293, FIG. 12D
[11] = target: T1, HuCD100-Fc (in-house prepared); assay: FACS blocking; HuPlexin-B1-HEK293, FIG. 12B
CynoCD100-HEK293 [12] = target: CynoCD100-HEK293 (cynomolgus monkey); assay: FACS; remark: listed apart in the source

IC50 [1]: 3.56 nM | EC50 [2]: 0.275 nM | EC50 [3]: 0.307 nM | EC50 [4]: 0.426 nM | EC50 (CynoCD100-HEK293 [5]): 0.132 nM | IC50 [6]: 0.766 nM | IC50 (MusCD100-Fc [7]): 4.08 nM | EC50 (CynoCD100-His): 0.0993 nM | IC50 (MusCD100-Fc [8]): 5.44 nM | EC50 [9]: 0.0659 mg/L | IC50 [10]: 2.06 nM | IC50 [11]: 1.31 nM | EC50 (CynoCD100-HEK293 [12]): 0.271 nM
B1: Pepinemab (antibody, V domains shown)
VH: QVQLVQSGAEVKKPGSSVKVSCKASGYSFSDYYMHWVRQAPGQGLEWMGQINPTTGGASYNQKFKGKATITVDKSTSTAYMELSSLRSEDTAVYYCARYYYGRHFDVWGQGTTVTVSS
VL: DIVMTQSPDSLAVSLGERATINCKASQSVDYDGDSYMNWYQQKPGQPPKLLIYAASNLESGVPDRFSGSGSGTDFTLTISSLQAEDVAVYYCQQSNEDPYTFGQGTKLEIK
